How the values were obtained:
[1] = target: T1, human MET-Fc chimeric protein (R&D Systems) (human, UniProt P08581 25-932); assay: competition ELISA, hMET-Fc in solid phase, competitor 0.3 nM biotinylated hHGF
T1 construct: extracellular domain; bought (R&D Systems); also called hMET; not shown: Fc portion of human IgG1
Procedure, shortened: (§1)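 Values are IC₅₀, the antibody level reaching half-maximal competition, and IMAX, the highest percent competition at saturation. Each antibody was added from 0 to 120 nM alongside HGF labelled at the N-terminus with NHS-LC-biotin, on immobilized MET-Fc.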

[2] = target: T2, native human MET on living human cells (human, UniProt P08581 25-1390); assay: flow cytometry, A549 cells
T2 construct: whole, on cells; also called Human cells (A549); HPAF-II
Procedure, shortened: (§2)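 Maximal binding (EMAX) comes from flow cytometric analysis of intact living cells labelled with chimeric anti-MET antibodies and a PE-coupled anti-human IgG1 secondary.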

[3] = target: T3, native mouse MET on living mouse cells (mouse, UniProt P16056 25-1379); assay: flow cytometry, MLP29 cells
T3 construct: whole, on cells; also called Mouse cells (MLP29)
Procedure, shortened: as §2

[4] = target: T3, native mouse MET on living mouse cells; assay: cell-based or functional assay
[5] = target: T2, native human MET on living human cells; assay: cell-based or functional assay
[6] = target: T3, native mouse MET on living mouse cells; assay: cell-based or functional assay; remark: listed apart in the source
[7] = target: T2, native human MET on living human cells; assay: cell-based or functional assay; remark: listed apart in the source
[8] = target: T4, mouse MET-Fc chimeric protein (R&D Systems) (mouse, UniProt P16056 25-929, limits assumed); assay: competition ELISA, mMET-Fc in solid phase, competitor 0.3 nM biotinylated mHGF
T4 construct: bought (R&D Systems); also called mMET; not shown: Fc
Procedure, shortened: as §1

[9] = target: human MET ECD mutant D (mutations 1, 2) (human) (UniProt P08581); assay: ELISA, MET ECD mutant in solid phase, mAb 0-50 nM
[10] = target: human MET ECD mutant E (mutations 2, 3, 4) (human) (UniProt P08581); assay: ELISA, MET ECD mutant in solid phase, mAb 0-50 nM
[11] = target: human MET ECD mutant A (mutations 1, 2, 3) (human) (UniProt P08581); assay: ELISA, MET ECD mutant in solid phase, mAb 0-50 nM
[12] = target: human MET ECD mutant H (mutations 2, 4) (human) (UniProt P08581); assay: ELISA, MET ECD mutant in solid phase, mAb 0-50 nM
[13] = target: T5, human MET extracellular domain (ECD) (human, UniProt P08581 25-932); assay: ELISA, MET ECD in solid phase, mAb 0-50 nM
T5 construct: range 1-932; recombinant ECD; also called hMET; human MET ECD
Protocol: Using human MET as a template, we mutagenized each of these residues in different permutations, generating a series of MET mutants that are fully human except for specific residues, which are llama. Next, we tested the affinity of selected SEMA-binding mAbs (71D6, 71C3, 71D4, 71A3, 71G2) and PSI-binding mAbs (76H10 and 71G3) for these MET mutants by ELISA. To this end, the various MET proteins were immobilized in solid phase (100 ng/well in a 96-well plate) and then exposed to increasing concentrations of antibodies (0-50 nM) solution. […] Wild-type human MET was used as positive control.
TABLE 18 The epitopes of MET responsible for agonistic antibody binding represent residues conserved among H. sapiens, M. musculus, R. norvegicus, M. fascicularis but not among the same species and L. glama. The relevance of residues conserved among human, mouse, rat, cynomolgus monkey but not llama MET for binding to agonistic mAbs was tested by ELISA. Wild-type (WT) or mutant (MT) human MET ECD was immobilized in solid phase and exposed to increasing concentrations of mAbs in solution. […] All binding values were normalized to the WT protein and are expressed as % binding (EMAX) compared to WT MET.

[14] = target: human MET ECD mutant I (mutations 6, 7, 8) (human) (UniProt P08581); assay: ELISA, MET ECD mutant in solid phase, mAb 0-50 nM
[15] = target: human MET ECD mutant J (mutations 6, 7) (human) (UniProt P08581); assay: ELISA, MET ECD mutant in solid phase, mAb 0-50 nM

B1: chimeric llama-human IgG1 mAb 71G2 (antibody, V domains shown)
VH: EVQLQESGGGLVQPGGSLRLSCAASGFTFSIYDMSWVRQAPGKGLEWVSTINSDGSSTSYVDSVKGRFTISRDNAKNTLYLQMNSLKPEDTAVYYCAKVYGSTWDVGPMGYGMDYWGKGTLVTVSS
VL: SSALTQPSALSVSLGQTARITCQGGSLGSSYAHWYQQKPGQAPVLVIYGDDSRPSGIPERFSGSSSGGTATLTISGAQAEDEDDYYCQSTDSSGNTVFGGGTRLTVL
IMAX (maximum % competition) [1]: 97.8%
EMAX (% relative to control) [2]: 144%
EMAX (% relative to control) [3]: 130%
cell scattering score, MLP29, 0.001 nM [4]: 0 score 0-4
cell scattering score, MLP29, 0.004 nM [4]: 0 score 0-4
cell scattering score, MLP29, 0.012 nM [4]: 1 score 0-4
cell scattering score, MLP29, 0.037 nM [4]: 2 score 0-4
cell scattering score, MLP29, 0.111 nM [4]: 4 score 0-4
cell scattering score, MLP29, 0.333 nM [4]: 4 score 0-4
cell scattering score, MLP29, 1.000 nM [4]: 4 score 0-4
cell scattering score, MLP29, 3.000 nM [4]: 4 score 0-4
cell scattering score, MLP29, 9.000 nM [4]: 4 score 0-4
cell scattering score, HPAF-II, 0.001 nM [5]: 0 score 0-4
cell scattering score, HPAF-II, 0.004 nM [5]: 1 score 0-4
cell scattering score, HPAF-II, 0.012 nM [5]: 2 score 0-4
cell scattering score, HPAF-II, 0.037 nM [5]: 3 score 0-4
cell scattering score, HPAF-II, 0.111 nM [5]: 4 score 0-4
cell scattering score, HPAF-II, 0.333 nM [5]: 4 score 0-4
cell scattering score, HPAF-II, 1.000 nM [5]: 4 score 0-4
cell scattering score, HPAF-II, 3.000 nM [5]: 4 score 0-4
cell scattering score, HPAF-II, 9.000 nM [5]: 4 score 0-4
protection from staurosporine, viability EC50, MLP29 [6]: 1.99 nM
protection from staurosporine, viability EMAX, MLP29 [6]: 58.3%
protection from staurosporine, viability EC50, MCF10A [7]: 1.06 nM
protection from staurosporine, viability EMAX, MCF10A [7]: 64.8%
IMAX (maximum % competition) [8]: 91.9%
% binding (EMAX) compared to WT MET [9]: 114%
% binding (EMAX) compared to WT MET [10]: 41.4%
% binding (EMAX) compared to WT MET [11]: 92.1%
% binding (EMAX) compared to WT MET [12]: 40.2%
% binding (EMAX) compared to WT MET [13]: 100%

B2: chimeric llama-human IgG1 mAb 76H10 (antibody, V domains shown)
VH: QLQLVESGGGLVQPGGSLRVSCTASGFTFNTYYMTWVRQAPGKGLEWVSDINSGGGTYYADSVKGRFTISRDNAKNTLYLQMNSLKPEDTALYYCVRVRIWPVGYDYWGQGTQVTVSS
VL: QAVVTQEPSLSVSPGGTVTLTCGLSSGSVTTSNYPGWFQQTPGQAPRTLIYNTNNRHSGVPSRFSGSISGNKAALTITGAQPEDEADYYCSLYTGSYTTVFGGGTHLTVL
IMAX (maximum % competition) [1]: 64.2%
EMAX (% relative to control) [2]: 130%
EMAX (% relative to control) [3]: 124%
cell scattering score, MLP29, 0.001 nM [4]: 0 score 0-4
cell scattering score, MLP29, 0.004 nM [4]: 0 score 0-4
cell scattering score, MLP29, 0.012 nM [4]: 0 score 0-4
cell scattering score, MLP29, 0.037 nM [4]: 0 score 0-4
cell scattering score, MLP29, 0.111 nM [4]: 0 score 0-4
cell scattering score, MLP29, 0.333 nM [4]: 0 score 0-4
cell scattering score, MLP29, 1.000 nM [4]: 1 score 0-4
cell scattering score, MLP29, 3.000 nM [4]: 2 score 0-4
cell scattering score, MLP29, 9.000 nM [4]: 3 score 0-4
cell scattering score, HPAF-II, 0.001 nM [5]: 0 score 0-4
cell scattering score, HPAF-II, 0.004 nM [5]: 0 score 0-4
cell scattering score, HPAF-II, 0.012 nM [5]: 0 score 0-4
cell scattering score, HPAF-II, 0.037 nM [5]: 0 score 0-4
cell scattering score, HPAF-II, 0.111 nM [5]: 0 score 0-4
cell scattering score, HPAF-II, 0.333 nM [5]: 0 score 0-4
cell scattering score, HPAF-II, 1.000 nM [5]: 1 score 0-4
cell scattering score, HPAF-II, 3.000 nM [5]: 2 score 0-4
cell scattering score, HPAF-II, 9.000 nM [5]: 3 score 0-4
protection from staurosporine, viability EC50, MLP29 [6]: > 32 nM
protection from staurosporine, viability EMAX, MLP29 [6]: 27.2%
protection from staurosporine, viability EC50, MCF10A [7]: > 32 nM
protection from staurosporine, viability EMAX, MCF10A [7]: 22.8%
IMAX (maximum % competition) [8]: 62.7%
% binding (EMAX) compared to WT MET [14]: 100%
% binding (EMAX) compared to WT MET [15]: 89%

B3: chimeric llama-human IgG1 mAb 71A3 (antibody, V domains shown)
VH: EVQLVESGGGLVQPGGSLRLSCAASGFSFKDYDITWVRQAPGKGLEWVSTITSRSGSTSYVDSVKGRFTISGDNAKNTLYLQMNSLKPEDTAVYYCAKVYATTWDVGPLGYGMDYWGKGTLVTVSS
VL: SYELTQPSALSVTLGQTAKITCQGGSLGSSYAHWYQQKPGQAPVLVIYDDDSRPSGIPERFSGSSSGGTATLTISGAQAEDEGDYYCQSADSSGNAAVFGGGTHLTVL
IMAX (maximum % competition) [1]: 93.4%
EMAX (% relative to control) [2]: 161%
EMAX (% relative to control) [3]: 144%
cell scattering score, MLP29, 0.001 nM [4]: 0 score 0-4
cell scattering score, MLP29, 0.004 nM [4]: 0 score 0-4
cell scattering score, MLP29, 0.012 nM [4]: 2 score 0-4
cell scattering score, MLP29, 0.037 nM [4]: 3 score 0-4
cell scattering score, MLP29, 0.111 nM [4]: 3 score 0-4
cell scattering score, MLP29, 0.333 nM [4]: 4 score 0-4
cell scattering score, MLP29, 1.000 nM [4]: 4 score 0-4
cell scattering score, MLP29, 3.000 nM [4]: 4 score 0-4
cell scattering score, MLP29, 9.000 nM [4]: 4 score 0-4
cell scattering score, HPAF-II, 0.001 nM [5]: 0 score 0-4
cell scattering score, HPAF-II, 0.004 nM [5]: 0 score 0-4
cell scattering score, HPAF-II, 0.012 nM [5]: 2 score 0-4
cell scattering score, HPAF-II, 0.037 nM [5]: 3 score 0-4
cell scattering score, HPAF-II, 0.111 nM [5]: 3 score 0-4
cell scattering score, HPAF-II, 0.333 nM [5]: 4 score 0-4
cell scattering score, HPAF-II, 1.000 nM [5]: 4 score 0-4
cell scattering score, HPAF-II, 3.000 nM [5]: 4 score 0-4
cell scattering score, HPAF-II, 9.000 nM [5]: 4 score 0-4
protection from staurosporine, viability EC50, MLP29 [6]: < 0.5 nM
protection from staurosporine, viability EMAX, MLP29 [6]: 70.5%
protection from staurosporine, viability EC50, MCF10A [7]: < 0.5 nM
protection from staurosporine, viability EMAX, MCF10A [7]: 71.7%
IMAX (maximum % competition) [8]: 87.7%
% binding (EMAX) compared to WT MET [9]: 128%
% binding (EMAX) compared to WT MET [10]: 65.4%
% binding (EMAX) compared to WT MET [11]: 117%
% binding (EMAX) compared to WT MET [12]: 76.7%
% binding (EMAX) compared to WT MET [13]: 100%
